# From IntAct's records for PubMed 23007647
# B1: Krev interaction trapped protein 1 (Homo sapiens), O00522 (parent)
# chain: MGNPENIEDAYVAVIRPKNTASLNSREYRAKSYEILLHEVPIEGQKKKRKKVLLETKLQGNSEITQGILDYVVETTKPISPANQGIRGKRVVLMKKFPLDGEKMGREASLFIVPSVVKDNTKYTYTPGCPIFYCLQDIMRVCSESSTHFATLTARMLIALDKWLDERHAQSHFIPALFRPSPLERIKTNVINPAYATESGQTENSLHMGYSALEIKSKMLALEKADTCIYNPLFGSDLQYTNRVDKVVINPYFGLGAPDYSKIQIPKQEKWQRSMSSVTEDKERQWVDDFPLHRSACEGDSELLSRLLSERFSVNQLDSDHWAPIHYACWYGKVEATRILLEKGKCNPNLLNGQLSSPLHFAAGGGHAEIVQILLNHPETDRHITDQQGRSPLNICEENKQNNWEEAAKLLKEAINKPYEKVRIYRMDGSYRSVELKHGNNTTVQQIMEGMRLSQETQQYFTIWICSENLSLQLKPYHKPLQHVRDWPEILAELTNLDPQRETPQLFLRRDVRLPLEVEKQIEDPLAILILFDEARYNLLKGFYTAPDAKLITLASLLLQIVYGNYESKKHKQGFLNEENLKSIVPVTKLKSKAPHWTNRILHEYKNLSTSEGVSKEMHHLQRMFLQNCWEIPTYGAAFFTGQIFTKASPSNHKVIPVYVGVNIKGLHLLNMETKALLISLKYGCFMWQLGDTDTCFQIHSMENKMSFIVHTKQAGLVVKLLMKLNGQLMPTERNS
# B2: Protein HEG homolog 1 (Homo sapiens), Q9ULI3 (parent)
# chain: MASPRASRWPPPLLLLLLPLLLLPPAAPGTRDPPPSPARRALSLAPLAGAGLELQLERRPEREPPPTPPRERRGPATPGPSYRAPEPGAATQRGPSGRAPRGGSADAAWKHWPESNTEAHVENITFYQNQEDFSTVSSKEGVMVQTSGKSHAASDAPENLTLLAETADARGRSGSSSRTNFTILPVGYSLEIATALTSQSGNLASESLHLPSSSSEFDERIAAFQTKSGTASEMGTERAMGLSEEWTVHSQEATTSAWSPSFLPALEMGELTTPSRKRNSSGPDLSWLHFYRTAASSPLLDLSSSSESTEKLNNSTGLQSSSVSQTKTMHVATVFTDGGPRTLRSLTVSLGPVSKTEGFPKDSRIATTSSSVLLSPSAVESRRNSRVTGNPGDEEFIEPSTENEFGLTSLRWQNDSPTFGEHQLASSSEVQNGSPMSQTETVSRSVAPMRGGEITAHWLLTNSTTSADVTGSSASYPEGVNASVLTQFSDSTVQSGGSHTALGDRSYSESSSTSSSESLNSSAPRGERSIAGISYGQVRGTAIEQRTSSDHTDHTYLSSTFTKGERALLSITDNSSSSDIVESSTSYIKISNSSHSEYSSFFHAQTERSNISSYDGEYAQPSTESPVLHTSNLPSYTPTINMPNTSVVLDTDAEFVSDSSSSSSSSSSSSSSGPPLPLPSVSQSHHLFSSILPSTRASVHLLKSTSDASTPWSSSPSPLPVSLTTSTSAPLSVSQTTLPQSSSTPVLPRARETPVTSFQTSTMTSFMTMLHSSQTADLKSQSTPHQEKVITESKSPSLVSLPTESTKAVTTNSPLPPSLTESSTEQTLPATSTNLAQMSPTFTTTILKTSQPLMTTPGTLSSTASLVTGPIAVQTTAGKQLSLTHPEILVPQISTEGGISTERNRVIVDATTGLIPLTSVPTSAKEMTTKLGVTAEYSPASRSLGTSPSPQTTVVSTAEDLAPKSATFAVQSSTQSPTTVSSSASVNSCAVNPCLHNGECVADNTSRGYHCRCPPSWQGDDCSVDVNECLSNPCPSTAMCNNTQGSFICKCPVGYQLEKGICNLVRTFVTEFKLKRTFLNTTVEKHSDLQEVENEITKTLNMCFSALPSYIRSTVHASRESNAVVISLQTTFSLASNVTLFDLADRMQKCVNSCKSSAEVCQLLGSQRRIFRAGSLCKRKSPECDKDTSICTDLDGVALCQCKSGYFQFNKMDHSCRACEDGYRLENETCMSCPFGLGGLNCGNPYQLITVVIAAAGGGLLLILGIALIVTCCRKNKNDISKLIFKSGDFQMSPYAEYPKNPRSQEWGREAIEMHENGSTKNLLQMTDVYYSPTSVRNPELERNGLYPAYTGLPGSRHSCIFPGQYNPSFISDESRRRDYF
# Legend:
# [1] = variants of: B1; details: with rap1a_mouse Rap1a
# heg1_human HEG1, Q9ULI3 = variants of: B1; details: with heg1_human HEG1, Q9ULI3
# ccm2_human CCM2, Q9BSQ5 = variants of: B1; details: with ccm2_human CCM2, Q9BSQ5
# Sequence of ccm2_human CCM2, Q9BSQ5 (Q9BSQ5 whole entry): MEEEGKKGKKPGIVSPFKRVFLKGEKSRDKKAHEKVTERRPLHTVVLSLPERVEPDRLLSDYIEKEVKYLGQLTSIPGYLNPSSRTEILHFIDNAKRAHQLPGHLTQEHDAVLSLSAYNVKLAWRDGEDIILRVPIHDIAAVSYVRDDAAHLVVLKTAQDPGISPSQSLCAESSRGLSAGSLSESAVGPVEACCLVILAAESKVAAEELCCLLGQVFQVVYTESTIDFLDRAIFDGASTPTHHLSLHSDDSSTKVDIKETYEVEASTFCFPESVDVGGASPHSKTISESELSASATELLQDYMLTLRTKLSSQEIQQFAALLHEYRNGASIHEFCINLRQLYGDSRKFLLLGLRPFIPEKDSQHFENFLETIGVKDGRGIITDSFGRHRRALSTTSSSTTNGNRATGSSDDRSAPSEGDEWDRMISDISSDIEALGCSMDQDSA
# [2] = variants of: B2; details: with krit1_human KRIT1, O00522
effect of a mutation on the interaction [1],"effect of a mutation on the interaction (heg1_human HEG1, Q9ULI3)","effect of a mutation on the interaction (ccm2_human CCM2, Q9BSQ5)",effect of a mutation on the interaction [2],Variant
disrupting interaction strength,–,–,–,R452E
with no effect,decreasing interaction strength,with no effect,–,L717A;L721A
–,–,–,with no effect,N1367A;F1370A
